Columns and labels:
[1] = target: T1, CD20 on WIL2-S cells (human) (UniProt P11836); assay: cell-based or functional assay
T1 sequence (looked up): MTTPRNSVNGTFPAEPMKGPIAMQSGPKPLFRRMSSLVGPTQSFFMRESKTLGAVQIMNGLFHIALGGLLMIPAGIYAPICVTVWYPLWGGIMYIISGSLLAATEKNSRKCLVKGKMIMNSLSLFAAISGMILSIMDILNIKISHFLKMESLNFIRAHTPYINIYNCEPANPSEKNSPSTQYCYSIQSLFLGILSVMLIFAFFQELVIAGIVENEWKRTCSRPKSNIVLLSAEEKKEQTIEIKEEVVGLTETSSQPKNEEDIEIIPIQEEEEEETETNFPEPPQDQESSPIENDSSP

大鼠FcRn (rat) = 大鼠FcRn (rat) (UniProt P13599); assay: BIAcore, FcRn on CM5 chip
人FcRn (human) = 人FcRn (human) (UniProt P55899); assay: BIAcore, FcRn on CM5 chip, pH 6.0
Sequence of 人FcRn (human) (P55899 24-297 limits assumed, chain 1 of 2): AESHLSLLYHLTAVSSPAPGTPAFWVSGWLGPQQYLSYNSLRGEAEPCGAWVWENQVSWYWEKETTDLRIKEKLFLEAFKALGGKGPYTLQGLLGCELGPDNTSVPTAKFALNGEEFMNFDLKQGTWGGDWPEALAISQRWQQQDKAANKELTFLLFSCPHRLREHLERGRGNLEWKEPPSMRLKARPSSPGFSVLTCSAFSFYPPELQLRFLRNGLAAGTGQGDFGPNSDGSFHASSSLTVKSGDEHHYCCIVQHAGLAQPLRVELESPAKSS
Sequence of 人FcRn (human) (P61769 21-119 limits assumed, chain 2 of 2, further chain): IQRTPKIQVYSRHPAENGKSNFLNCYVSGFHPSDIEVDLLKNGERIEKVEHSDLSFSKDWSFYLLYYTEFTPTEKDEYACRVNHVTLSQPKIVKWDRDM

Sequence of 大鼠FcRn (rat) (P13599 23-298 limits assumed, chain 1 of 2): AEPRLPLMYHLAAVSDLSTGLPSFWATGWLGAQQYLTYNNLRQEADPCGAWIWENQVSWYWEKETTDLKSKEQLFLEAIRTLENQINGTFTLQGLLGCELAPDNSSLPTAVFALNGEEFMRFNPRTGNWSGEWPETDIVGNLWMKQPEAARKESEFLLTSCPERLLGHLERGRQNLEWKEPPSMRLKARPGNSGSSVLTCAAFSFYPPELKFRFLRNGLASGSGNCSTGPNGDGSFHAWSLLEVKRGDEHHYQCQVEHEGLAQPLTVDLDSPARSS
Sequence of 大鼠FcRn (rat) (P07151 21-119 limits assumed, chain 2 of 2, further chain): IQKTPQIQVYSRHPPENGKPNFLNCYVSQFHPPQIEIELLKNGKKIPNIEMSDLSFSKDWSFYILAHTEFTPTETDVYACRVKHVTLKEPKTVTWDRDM

In the case of Rituxan (antibody), the ADCC on WIL2-S cells with NK cells, EC50(变体)/EC50(2H7.v16) [1] is reported as 5.3, the ADCC on WIL2-S cells with NK cells, EC50(变体)/EC50(Rituxan) [1] is reported as 1 and the CDC on WIL2-S cells, EC50(变体)/EC50(Rituxan) [1] is reported as 1.
For “Fc变体 N434W (from UniProt P01857 114-330)”, the fold increase in binding vs wild-type Fc (大鼠FcRn (rat)) was 10 fold.
“Fc变体 N434A+E380A+T307A (from UniProt P01857 114-330) (other; other documents disagree on this pair)” was tested, and the fold increase in affinity vs wild-type Fc (人FcRn (human)) was 14 fold.
“Fc变体 N434F (from UniProt P01857 114-330) (other; other documents disagree on this pair)” showed a fold increase in affinity vs wild-type Fc (人FcRn (human)) of 9 fold.
